The record followed here is article PMC11012335.

Data set [1] deals with Hfq WT (Escherichia coli K-12 MG1655) (UniProt P0A6X3). Put plainly: EMSA. To be noted: EMSA: 20 mM Tris-HCl pH 7.6, 0.5 M NaCl, 1 mM EDTA, 1% glycerol, 20 min at 25 C, native PAGE in 0.5x TBE at 4 C.
For data set [2] the target is unchanged. Put plainly: competition. The note with it: EMSA: 20 mM Tris-HCl pH 7.6, 0.5 M NaCl, 1 mM EDTA, 1% glycerol, 20 min at 25 C; native PAGE in 0.5x TBE at 4 C.

With DsrA, the K half in data set [1] (Hfq monomer, K1 (first shift)) stood at 122 nM. Regarding “GGGAACACAUCAGAUUUCCUGGUGUAACGAAUUUUUUAAGUGCUUCUUGCUUAAGCAAGUUUCAUCCCGACCCCCUCAGGGUCGGGAUUU [DsrA]”, the binding entry in data set [2] was “binds”. For the same substance, the K half in data set [1] came out at 122 nM. RNA I FL gave a binding signal in data set [1] (347.5 nM Hfq monomer) of 72.1 % bound. For the same substance, the K half in data set [1] (Hfq monomer, K1 (first shift)) is 225 nM.
